The target of assay [1] is Monoclonal antibody M.Ab.F11. As to the kind of experiment: platelet adhesion to immobilized M.Ab.F11 (150 ng/well), BCA protein read-out; peptide at 500 µM.
The target of assay [2] is Monoclonal antibody M.Ab.F11. Description: platelet adhesion to immobilized M.Ab.F11 (150 ng/well), BCA protein read-out; peptide at 50 µM.

Results on two molecules are retold here after patent US20120035094A1.

For the molecule KSVTREDTGTYTC [F11R-peptide 4], the % inhibition of the adhesion of platelets to immobilized M.Ab.F11 in assay [1] turned out to be 70%; in assay [2] it was 10%.
For the molecule SVTVHSSEPEVRIPENNPVKLSC [F11R-peptide 1], the % inhibition of the adhesion of platelets to immobilized M.Ab.F11 was 70% in assay [1] and 60% in assay [2].
